Reference: patent CN116355095A (SHANGHAI L&L VISION BIOPHARMACEUTICALS CO LTD, dated 2023)
Changes are numbered by the printed parent chain. Several values for one entry are separate records, joined by “and”; a condition that tells them apart may be missing. Identical values can stand only once.

Experiments:
CHO-K1-T1001细胞表达的人TIGIT [1] = target: T1, CHO-K1-T1001细胞表达的人TIGIT (human, UniProt Q495A1 22-244); assay: cell ELISA on fixed hTIGIT+ CHO-K1 cells; reference Ref2
T1 construct: whole, on cells; also called hTIGIT+细胞; CHO-K1 TIGIT+细胞系
T1 sequence (looked up): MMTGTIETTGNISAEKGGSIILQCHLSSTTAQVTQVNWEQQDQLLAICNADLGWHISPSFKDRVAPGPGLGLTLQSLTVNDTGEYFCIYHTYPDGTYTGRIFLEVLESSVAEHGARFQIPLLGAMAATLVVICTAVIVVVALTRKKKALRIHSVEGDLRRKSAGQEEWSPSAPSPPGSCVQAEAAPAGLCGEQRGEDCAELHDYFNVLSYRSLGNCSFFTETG

[2] = target: T2, 人TIGIT重组蛋白 (hTIGIT; TIGIT-hFc 或 TIGIT-his) (human, UniProt Q495A1 22-141); assay: ELISA on coated hTIGIT; reference Ref2
T2 construct: extracellular domain; not shown: C-terminal tag (-his, -hFc or -mFc)
T2 sequence (looked up): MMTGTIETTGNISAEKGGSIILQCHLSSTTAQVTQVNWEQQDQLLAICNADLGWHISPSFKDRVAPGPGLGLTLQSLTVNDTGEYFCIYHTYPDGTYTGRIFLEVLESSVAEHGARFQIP

人TIGIT-hFc [3] = target: T3, 人TIGIT-hFc (human, UniProt Q495A1 22-141; P01857 99-330 = IgG part, limits assumed); assay: blocking ELISA: Bio-CD155 on coated TIGIT-hFc; reference Ref2
T3 construct: extracellular domain;domain: IgG1 Fc区域; also called hTIGIT

[4] = target: T2, 人TIGIT重组蛋白 (hTIGIT; TIGIT-hFc 或 …); assay: ELISA on coated hTIGIT
CHO-K1-T1001细胞表达的人TIGIT [5] = target: T1, CHO-K1-T1001细胞表达的人TIGIT; assay: cell ELISA on fixed hTIGIT+ CHO-K1 cells
人TIGIT-hFc [6] = target: T3, 人TIGIT-hFc; assay: blocking ELISA: Bio-CD155 on coated TIGIT-hFc; reference Ref1
恒河猴TIGIT-mFc [7] = target: T4, 恒河猴TIGIT-mFc (rhesus monkey; mouse, UniProt A0A5F8AKQ5 22-142; P01863 98-330 = IgG part); assay: ELISA on coated RhTIGIT-mFc; reference Ref2
T4 construct: also called RhTIGIT-mFc; RhTIGIT
T4 sequence (P01863 other isoform, or with tags, fused parts or gaps): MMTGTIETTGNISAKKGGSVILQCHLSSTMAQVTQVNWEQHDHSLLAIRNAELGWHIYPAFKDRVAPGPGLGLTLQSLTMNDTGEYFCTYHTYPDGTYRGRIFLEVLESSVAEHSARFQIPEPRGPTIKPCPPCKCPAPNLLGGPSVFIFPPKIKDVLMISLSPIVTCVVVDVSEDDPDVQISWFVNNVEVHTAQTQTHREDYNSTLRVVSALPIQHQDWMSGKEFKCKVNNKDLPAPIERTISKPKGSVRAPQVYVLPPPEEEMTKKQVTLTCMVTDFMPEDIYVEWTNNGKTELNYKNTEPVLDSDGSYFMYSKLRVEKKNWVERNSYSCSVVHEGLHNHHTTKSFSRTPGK

人TIGIT-hFc [8] = target: T3, 人TIGIT-hFc; assay: blocking ELISA: Bio-CD155 on coated TIGIT-hFc
恒河猴TIGIT-mFc [9] = target: T4, 恒河猴TIGIT-mFc; assay: ELISA on coated RhTIGIT-mFc; reference Ref1
恒河猴TIGIT-mFc [10] = target: T4, 恒河猴TIGIT-mFc; assay: ELISA on coated RhTIGIT-mFc
小鼠TIGIT-his = target: T5, 小鼠TIGIT-his (mouse, UniProt P86176 29-148, limits assumed); assay: ELISA on coated antigen (Example 3)
T5 construct: Bought reagent; also called mouse TIGIT-his; muTIGIT-his
T5 sequence: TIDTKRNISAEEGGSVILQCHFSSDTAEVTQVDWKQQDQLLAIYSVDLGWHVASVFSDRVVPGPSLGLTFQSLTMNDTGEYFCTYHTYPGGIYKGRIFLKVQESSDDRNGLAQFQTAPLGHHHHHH

CHO-K1-T1001细胞表达的人TIGIT [11] = target: T1, CHO-K1-T1001细胞表达的人TIGIT; assay: cell ELISA on fixed hTIGIT+ CHO-K1 cells; reference Ref1
[12] = target: T2, 人TIGIT重组蛋白 (hTIGIT; TIGIT-hFc 或 …); assay: ELISA on coated antigen
LT023 (TIGIT/his) = target: T6, LT023 (TIGIT/his) (human, UniProt Q495A1 22-141); assay: double sandwich ELISA: coated TIGIT/his, detection with PD-L1/mFc (Example 6), used on serum samples
T6 construct: extracellular domain; Made in-house
T6 sequence: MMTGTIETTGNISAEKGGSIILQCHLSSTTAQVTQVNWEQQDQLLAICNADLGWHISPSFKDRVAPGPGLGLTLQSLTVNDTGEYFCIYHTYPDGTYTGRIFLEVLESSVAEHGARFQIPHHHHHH

人PD-1(hFc/his tag) = target: T7, 人PD-1(hFc/his tag) (human, UniProt Q15116 25-170); assay: ELISA on coated antigen
T7 construct: extracellular domain; not shown: C-terminal tag (hFc or his)
T7 sequence (Q15116 25-170): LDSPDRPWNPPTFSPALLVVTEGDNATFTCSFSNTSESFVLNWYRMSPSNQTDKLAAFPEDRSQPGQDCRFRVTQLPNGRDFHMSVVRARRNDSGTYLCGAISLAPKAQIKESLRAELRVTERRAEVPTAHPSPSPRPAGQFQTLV

B1: 嵌合抗体mab22c (antibody, human IgG1, kappa, V domains shown)
VH: EVKLVESGGGLVQPGGSLKLSCVASGFTFSSYTMSWVRQTPEKRLELVAEISSSGGSTYYPDTVKGRFTISRDNAKNTLFLQMNSLKSEDTAMYYCARPGLGAWFAYWGQGTLVTVSA
VL: DVLMTQTPLSLPVSLGDQASISCRSSQSIVHNSGNTYLEWYLQKPGQSPKLLIYKVSNRFSGVPDRFSGSGSGTDFTLKISRVEAEDLGIYYCFQFSHVPRTFGGGTKLEIKR
notes: also called 人鼠嵌合抗体mab22c
EC50 ratio to Ref2 (CHO-K1-T1001细胞表达的人TIGIT [1]): 0.47 fold | EC50 ratio to Ref2 [2]: 0.68 fold | IC50 ratio to Ref2 (人TIGIT-hFc [3]): 0.51 fold | EC50 [4]: 270 pM and 585 pM | EC50 (CHO-K1-T1001细胞表达的人TIGIT [5]): 101 pM | IC50 ratio to Ref1 (人TIGIT-hFc [6]): 0.46 fold | EC50 ratio to Ref2 (恒河猴TIGIT-mFc [7]): ~2 fold | IC50 (人TIGIT-hFc [8]): 541 pM | EC50 ratio to Ref1 (恒河猴TIGIT-mFc [9]): ~2 fold | EC50 (恒河猴TIGIT-mFc [10]): 658 pM

B2: IF091 (鼠源单克隆抗体mab22) (antibody, V domains shown)
VH: B1 VH
VL: DVLMTQTPLSLPVSLGDQASISCRSSQSIVHNSGNTYLEWYLQKPGQSPKLLIYKVSNRFSGVPDRFSGSGSGTDFTLKISRVEAEDLGIYYCFQFSHVPRTFGGGTKLEIK
notes: Mouse antibody purified from ascites
binding result (小鼠TIGIT-his): no binding (tested: 10μg/mL起始，5倍梯度稀释)

B3: 人源化抗体mab22-h2 (antibody, human IgG1, kappa, V domains shown)
VH: EVQLVESGGGLVQPGGSLRLSCAASGFTFSSYTMSWVRQAPGKGLEWVSEISSSGGSTYYPDTVKGRFTISRDNSKNTLYLQMNSLRAEDTAVYYCARPGLGAWFAYWGQGTLVTVSS
VL: B1 VL with L3V, T7S, S14T, L15P, D17E, Q18P, L88V, I90V, L109V
notes: hIgG1, kappa
binding result [4]: binds | binding result (CHO-K1-T1001细胞表达的人TIGIT [5]): binds

B4: 人源化抗体mab22-h6 (antibody, human IgG1, kappa)
heavy: not shown
light: DIVMTQSPLSLPVTPGEPASISCRSSQSIVHNSGNTYLEWYLQKPGQSPKLLIYKVSNRFSGVPDRFSGSGSGTDFTLKISRVEAEDVGVYYCFQFSHVPRTFGGGTKVEIKRTVAAPSVFIFPPSDEQLKSGTASVVCLLNNFYPREAKVQWKVDNALQSGNSQESVTEQDSKDSTYSLSSTLTLSKADYEKHKVYACEVTHQGLSSPVTKSFNRGEC
notes: hIgG1, kappa
EC50 (CHO-K1-T1001细胞表达的人TIGIT [5]): 13.3 pM | IC50 ratio to Ref1 (人TIGIT-hFc [6]): 0.44 fold | IC50 (人TIGIT-hFc [8]): 1440 pM | EC50 ratio to Ref1 (CHO-K1-T1001细胞表达的人TIGIT [11]): 0.5 fold

B5: 双特异抗体LB615 (bispecific antibody)
heavy: not shown
light: B4 light
binding result [12]: binds

B6: 双特异抗体LB621 (bispecific antibody)
heavy: not shown
light: B4 light
notes: Whole mab22-h6 antibody with an anti-PD-L1 (Atezo) scFv joined to its heavy chain; the printed heavy chain carries the scFv at the C-terminus with the last K changed to A
binding result [12]: binds | binding result (LT023 (TIGIT/his)): binds

B7: 双特异抗体LB610 (bispecific antibody, human IgG1, kappa)
heavy: not shown
light: B4 light
binding result [12]: binds | binding result (人PD-1(hFc/his tag)): binds

B8: 人源化抗体mab22-h1 (antibody, human IgG1, kappa, V domains shown)
VH: B3 VH
VL: DIVMTQSPLSLPVTPGEPASISCRSSQSIVHNSGNTYLEWYLQKPGQSPQLLIYKVSNRFSGVPDRFSGSGSGTDFTLKISRVEAEDVGVYYCFQFSHVPRTFGGGTKVEIKR
notes: hIgG1, kappa
binding result [4]: binds | binding result (CHO-K1-T1001细胞表达的人TIGIT [5]): binds
